Reference: publication PMC12270679 (2025)

Biological target: Unp-CTD (Saccharomyces cerevisiae, synthetic peptide, N-terminal FAM label, unphosphorylated; consensus RNAPII Rpb1 CTD heptad x3)
Assay: FP; unphosphorylated CTD peptide

Kd: 4.06 mM
B1: MBP-Asr1 (natural protein)
chain: MEECPICLADDQEGEQFGCLNVCGHKFHLNCIREWHKYSINLKCPICRVESTHLEVGEGQHALSINLKMGFMIKNAIDYVGAETTNERNEDDTGEQDQEIEFLSERLRGTLVMDTIKIIQCSICGDTDVSRLSLYCQDCEAIYHETCLRGLACEVGDRNTWQECTDCRSNALLELRMGAISSQLASYDSRNSMIFAGELRDKHSVKTQQMYEQIRNAKHKIQMHVRRALDRYPLPLLRFKDAYKHVNKQVSRKLYRLSDNKYLPDQYDYDSLARTGVHTELLIYCHDE
